# The Human Domainome abundance scans (Beltran et al. 2025)
# ± gives the uncertainty stated by the source.
# B1: Homeobox protein cut-like 1, residues 941 to 1008; numbered along this chain, P39880 (parent)
# chain: QEVDTIELTRQVKEKLAKNGICQRIFGEKVLGLSQGSVSDMLSRPKPWSKLTQKGREPFIRMQLWLNG
# B2: Connector enhancer of kinase suppressor of ras 2, residues 9 to 71; numbered along this chain, Q8WXI2 (parent)
# chain: SKWSPSQVVDWMKGLDDCLQQYIKNFEREKISGDQLLRITHQELEDLGVSRIGHQELILEAVD
# Variants of: B1
# Assay: abundance fitness (aPCA) (normalised: wild type 0, dead -1); higher = more abundant; growth selection in yeast, the domain comes from the species named
# Details: Homo sapiens
row,Variant,abundance fitness
1,QEVDTIELTRQVKEKLAKNGWCQRIFGEKVLGLSQGSVSDMLSRPKPWSKLTQKGREPFIRMQLWLNG [I21W],0 ± 0.052
2,QEVYTIELTRQVKEKLAKNGICQRIFGEKVLGLSQGSVSDMLSRPKPWSKLTQKGREPFIRMQLWLNG [D4Y],-0.43 ± 0.074
3,QEVDTIELTRQVKEKLAKNGICQRIFGEKVLGLSQGSVSDMLSRPKPWSKLLQKGREPFIRMQLWLNG [T52L],-0.018 ± 0.053
4,QEVDTIELTRQQKEKLAKNGICQRIFGEKVLGLSQGSVSDMLSRPKPWSKLTQKGREPFIRMQLWLNG [V12Q],-0.143 ± 0.083
5,QEVDTIELTRQVKEKLAKNAICQRIFGEKVLGLSQGSVSDMLSRPKPWSKLTQKGREPFIRMQLWLNG [G20A],-0.135 ± 0.053
6,QEVDTIELTRQVKEKLAKNGICQRIFGEKVLGLSQGSVSDMLSRPKPWSKLTQKGREPFCRMQLWLNG [I60C],-0.139 ± 0.12

# Variants of: B2
# Assay: as above
# Details: Homo sapiens
row,Variant,abundance fitness
1,L44Q,-0.932 ± 0.12
2,L44I,-0.982 ± 0.23
3,L44S,-0.784 ± 0.039
4,L44V,-0.79 ± 0.045
5,L44H,-0.914 ± 0.089
6,L44K,-0.791 ± 0.068
7,L44Y,-0.9 ± 0.086
8,L44W,-0.964 ± 0.06
9,L44N,-0.87 ± 0.091
10,L44P,-0.821 ± 0.073
11,L44M,-0.399 ± 0.05
12,L44T,-0.781 ± 0.05
13,L44R,-0.753 ± 0.036
14,E60D,-0.012 ± 0.047
15,E60R,-0.072 ± 0.025
16,E60F,-0.615 ± 0.058
17,E60P,-0.905 ± 0.073
18,E60Q,0.006 ± 0.046
19,E60T,-0.057 ± 0.03
20,E60W,-0.664 ± 0.04
21,E60M,-0.226 ± 0.032
22,E60Y,-0.514 ± 0.047
23,E60G,-0.096 ± 0.031
24,E60N,-0.012 ± 0.04
25,E60I,-0.531 ± 0.056
26,E60V,-0.439 ± 0.029

row,Variant,abundance fitness
1,E60H,-0.111 ± 0.038
2,E60C,-0.187 ± 0.037
3,E60S,-0.004 ± 0.026
4,H54V,-0.982 ± 0.05
5,H54K,-0.843 ± 0.052
6,H54E,-0.412 ± 0.053
7,H54F,-0.886 ± 0.1
8,H54M,-0.819 ± 0.052
9,H54C,-0.835 ± 0.07
10,H54R,-0.793 ± 0.043
11,H54G,-0.887 ± 0.056
12,H54Q,-0.944 ± 0.093
13,H54S,-0.766 ± 0.039
14,H54I,-1.15 ± 0.14
15,H54W,-1.27 ± 0.17
16,H54A,-0.727 ± 0.036
17,H54T,-0.874 ± 0.049
18,H54Y,-0.863 ± 0.081
19,H54N,-0.65 ± 0.036
20,V62Q,-0.789 ± 0.089
21,V62M,-0.552 ± 0.043
22,V62E,-0.63 ± 0.11
23,V62G,-0.802 ± 0.046
24,V62H,-1.04 ± 0.11
25,V62K,-0.392 ± 0.12
26,V62L,-0.258 ± 0.037

row,Variant,abundance fitness
1,V62R,-0.061 ± 0.028
2,V62A,-0.335 ± 0.04
3,V62N,-0.815 ± 0.057
4,V62S,-0.741 ± 0.048
5,V62P,-0.779 ± 0.077
6,V62C,-0.411 ± 0.047
7,V62D,-0.822 ± 0.088
8,V62W,-0.909 ± 0.17
9,V62Y,-1.02 ± 0.11
10,V62I,-0.047 ± 0.044
11,V62F,-0.921 ± 0.084
12,V62T,-0.58 ± 0.047
13,D63L,-0.176 ± 0.063
14,D63P,-0.792 ± 0.14
15,D63E,-0.012 ± 0.045
16,D63H,0 ± 0.045
17,D63A,-0.001 ± 0.045
18,D63I,-0.274 ± 0.063
19,D63K,-0.059 ± 0.087
20,D63T,-0.055 ± 0.057
21,D63W,-0.311 ± 0.12
22,D63Y,-0.096 ± 0.051
23,D63Q,-0.039 ± 0.24
24,D63G,0.041 ± 0.035
25,D63C,-0.025 ± 0.05
26,D63R,0.108 ± 0.046

row,Variant,abundance fitness
1,D63F,-0.233 ± 0.057
2,D63N,-0.024 ± 0.06
3,I58N,-0.851 ± 0.12
4,I58H,-0.268 ± 0.29
5,I58K,-0.727 ± 0.12
6,I58L,-0.096 ± 0.039
7,I58A,-0.799 ± 0.099
8,I58R,-0.811 ± 0.076
9,I58Q,-0.696 ± 0.092
10,I58T,-0.688 ± 0.11
11,I58S,-0.714 ± 0.065
12,I58V,-0.374 ± 0.063
13,I58F,-0.033 ± 0.085
14,I58P,-0.671 ± 0.085
15,I58Y,-1.35 ± 0.46
16,I58G,-0.945 ± 0.24
17,I58W,-0.734 ± 0.18
18,I58E,-0.584 ± 0.078
19,L57N,-0.533 ± 0.049
20,L57E,-0.446 ± 0.034
21,L57W,-0.987 ± 0.066
22,L57G,-0.635 ± 0.043
23,L57P,-0.831 ± 0.057
24,L57M,0.035 ± 0.04
25,L57I,-0.242 ± 0.048
26,L57V,-0.439 ± 0.033

row,Variant,abundance fitness
1,L57C,-0.394 ± 0.051
2,L57F,-0.553 ± 0.036
3,L57K,0.021 ± 0.049
4,L57Q,-0.213 ± 0.043
5,L57S,-0.298 ± 0.033
6,L57A,-0.105 ± 0.026
7,L57D,-0.677 ± 0.064
8,L57Y,-0.53 ± 0.051
9,L57R,-0.202 ± 0.027
10,L57T,-0.448 ± 0.032
11,L57H,-0.482 ± 0.057
12,E45S,-0.017 ± 0.02
13,E45T,-0.034 ± 0.03
14,E45P,-0.784 ± 0.052
15,E45N,-0.015 ± 0.039
16,E45F,-0.033 ± 0.043
17,E45R,-0.017 ± 0.021
18,E45M,-0.066 ± 0.033
19,E45V,-0.118 ± 0.028
20,E45D,-0.167 ± 0.056
21,E45K,0.021 ± 0.042
22,E45C,-0.018 ± 0.031
23,E45Q,-0.007 ± 0.047
24,E45H,-0.04 ± 0.022
25,E45L,-0.045 ± 0.026
26,E45W,-0.193 ± 0.027

row,Variant,abundance fitness
1,E45I,-0.076 ± 0.035
2,E45G,-0.12 ± 0.029
3,R51F,0.006 ± 0.033
4,R51W,-0.115 ± 0.036
5,R51L,-0.015 ± 0.026
6,R51Q,0.071 ± 0.035
7,R51M,-0.042 ± 0.039
8,R51V,0.061 ± 0.029
9,R51T,0.063 ± 0.027
10,R51D,0.081 ± 0.043
11,R51H,0.018 ± 0.039
12,R51E,0.088 ± 0.044
13,R51P,-0.021 ± 0.036
14,R51A,0.031 ± 0.026
15,R51S,0.088 ± 0.027
16,R51G,-0.083 ± 0.026
17,R51N,0.063 ± 0.046
18,R51C,0.082 ± 0.034
19,R51I,0.03 ± 0.03
20,S50T,0.039 ± 0.055
21,S50L,-0.072 ± 0.033
22,S50C,-0.068 ± 0.067
